The results in this text go back to patent US20240424167A1.

The target in test [1] is type I collagen of the SIS membrane. Briefly: CLSM, SIS membrane soaked in 200 µM chimeric peptide solution (H-pSIS).
Test [2] addresses type III collagen of the SIS membrane. The description is as above.

No end group written: not given here.

B1: P9 polypeptide (TKKTLRT+linker-1+Hst1) (peptide)
peptide: TKKTLRTGGGGSGGGGSSHREFPFYGDYGS
modifications: also: fluorescent label FITC or rhodamine B (paragraphs differ), position not given here
In the case of B1, the fluorescent area of the SIS membrane in test [1] was > 85%.

B2: P10 polypeptide (TKKTLRT+linker-1+JH8194) (peptide)
peptide: TKKTLRTGGGGSGGGGSKRLFRRWQWRMKKY
modifications: also: fluorescent label FITC or rhodamine B (paragraphs differ), position not given here
Turning to B2, the fluorescent area of the SIS membrane in test [1] was > 85%.

B3: P12 polypeptide (KELNLVY+linker-1+JH8194) (peptide)
peptide: KELNLVYGGGGSGGGGSKRLFRRWQWRMKKY
modifications: also: fluorescent label rhodamine B or FITC (paragraphs differ), position not given here
On to B3, for which the fluorescent area of the SIS membrane in test [2] was > 85%.

B4: P11 polypeptide (KELNLVY+linker-1+Hst1) (peptide)
peptide: KELNLVYGGGGSGGGGSSHREFPFYGDYGS
modifications: also: fluorescent label rhodamine B or FITC (paragraphs differ), position not given here
For the molecule B4, the fluorescent area of the SIS membrane in test [2] is > 85%.
